{
  "source": "the supplement of paper PMC7125110",
  "parents": {"B1": {"name": "glmS ribozyme (parent)", "chain": "AUAAAAGCGCCAGAACUACAGAAAUGUAGUUGACGAGGAGGAGGUUUAUCGAAUUUUCGGCGGAUGCCUCCAAA"}},
  "details_in_all_cases": "with glucosamine-6-phosphate",
  "key": {"glucosamine-6-phosphate [1]": {"variants_of": "B1", "assay": "self-cleavage kobs at 160 uM GlcN6P; higher = faster cleavage; RNA array", "outline": "(§1)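 kcat and KM were obtained from weighted Michaelis–Menten fits across concentrations of kobs values. Those came from one- or two-exponential decay fits to per-tile medians normalised to baseline and to non-cleaving reference variants. The variants were barcoded ribozymes transcribed in situ by E. coli RNA polymerase on sequenced MiSeq chips and tracked through a hybridised Cy3 probe at 37 °C, with 40 μM to 10 mM glucosamine-6-phosphate in HEPES/KCl/Mg(OAc)2 buffer flowed in.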"}, "glucosamine-6-phosphate [2]": {"variants_of": "B1", "assay": "self-cleavage kobs at 640 uM GlcN6P; higher = faster cleavage; RNA array", "outline": "as §1"}, "glucosamine-6-phosphate [3]": {"variants_of": "B1", "assay": "self-cleavage kobs at 2500 uM GlcN6P; higher = faster cleavage; RNA array", "outline": "as §1"}, "glucosamine-6-phosphate [4]": {"variants_of": "B1", "assay": "self-cleavage kobs at 10000 uM GlcN6P; higher = faster cleavage; RNA array", "outline": "as §1"}},
  "note": "± gives the standard error. This sample holds only a part of the variants without activity.",
  "data": [
    {"variant": "AUAAAAGCGCCAGCACUACAGAAAUGUAGUUGACAAGGAGGAGGUUUAUCGAAUUUUCGGCGGAUGCCUCCAAA", "note": "[A14C G35A]", "values": [
      {"measurement": "self-cleavage kobs at 160 uM GlcN6P", "setting": "glucosamine-6-phosphate [1]", "result": "< 1e-05", "unit": "s⁻¹"},
      {"measurement": "self-cleavage kobs at 640 uM GlcN6P", "setting": "glucosamine-6-phosphate [2]", "result": "< 1e-05", "unit": "s⁻¹"},
      {"measurement": "self-cleavage kobs at 2500 uM GlcN6P", "setting": "glucosamine-6-phosphate [3]", "result": "< 1e-05", "unit": "s⁻¹"},
      {"measurement": "self-cleavage kobs at 10000 uM GlcN6P", "setting": "glucosamine-6-phosphate [4]", "result": "< 1e-05", "unit": "s⁻¹"}
    ]},
    {"variant": "AUAAAAGCGCCAGAACUACAGAAAUGUAGUUGUCGACGAGGAGGUCUAUCGAAUUUUCGGCGGAUGCCUCCAAA", "note": "[A33U G37C U46C]", "values": [
      {"measurement": "self-cleavage kobs at 160 uM GlcN6P", "setting": "glucosamine-6-phosphate [1]", "result": "< 1e-05", "unit": "s⁻¹"},
      {"measurement": "self-cleavage kobs at 640 uM GlcN6P", "setting": "glucosamine-6-phosphate [2]", "result": "< 1e-05", "unit": "s⁻¹"},
      {"measurement": "self-cleavage kobs at 2500 uM GlcN6P", "setting": "glucosamine-6-phosphate [3]", "result": "< 1e-05", "unit": "s⁻¹"}
    ]},
    {"variant": "AUAAAAGCGCCAGAACUACAGAAAUGUAAUCGAUGAGGAGGAGGUUUAUCGAAUUUUCGGCGGAUGCCUCCAAA", "note": "[G29A U31C C34U]", "values": [
      {"measurement": "self-cleavage kobs at 160 uM GlcN6P", "setting": "glucosamine-6-phosphate [1]", "result": "< 1e-05", "unit": "s⁻¹"},
      {"measurement": "self-cleavage kobs at 640 uM GlcN6P", "setting": "glucosamine-6-phosphate [2]", "result": "< 1e-05", "unit": "s⁻¹"},
      {"measurement": "self-cleavage kobs at 2500 uM GlcN6P", "setting": "glucosamine-6-phosphate [3]", "result": "< 1e-05", "unit": "s⁻¹"}
    ]},
    {"variant": "AUAAAAUCGCCAGAACUACAGAAAUGUAGUUGACGAGGAUGAGGUUUAUCGAAUUUUCGGCGGAUGCCUCCAAA", "note": "[G7U G40U]", "values": [
      {"measurement": "self-cleavage kobs at 160 uM GlcN6P", "setting": "glucosamine-6-phosphate [1]", "result": "< 1e-05", "unit": "s⁻¹"},
      {"measurement": "self-cleavage kobs at 640 uM GlcN6P", "setting": "glucosamine-6-phosphate [2]", "result": "< 1e-05", "unit": "s⁻¹"},
      {"measurement": "self-cleavage kobs at 2500 uM GlcN6P", "setting": "glucosamine-6-phosphate [3]", "result": "< 1e-05", "unit": "s⁻¹"},
      {"measurement": "self-cleavage kobs at 10000 uM GlcN6P", "setting": "glucosamine-6-phosphate [4]", "result": "< 1e-05", "unit": "s⁻¹"}
    ]},
    {"variant": "AUAAAAGCGCCAGAACUACAGAAAUGUAUUUGACGACGAGGCGGUAUAUCGAAUUUUCGGCGGAUGCCUCCAAA", "note": "[G29U G37C A42C U46A]", "values": [
      {"measurement": "self-cleavage kobs at 160 uM GlcN6P", "setting": "glucosamine-6-phosphate [1]", "result": "< 1e-05", "unit": "s⁻¹"},
      {"measurement": "self-cleavage kobs at 640 uM GlcN6P", "setting": "glucosamine-6-phosphate [2]", "result": "< 1e-05", "unit": "s⁻¹"}
    ]},
    {"variant": "AUAAAGGCGCCAGAACUACAGAAAUGUAGUUGAGGAGGAGGAGGUUUAUCUAAUUUUCGGCGAAUGCCUCCAAA", "note": "[A6G C34G G51U G63A]", "values": [
      {"measurement": "self-cleavage kobs at 160 uM GlcN6P", "setting": "glucosamine-6-phosphate [1]", "result": "< 1e-05", "unit": "s⁻¹"},
      {"measurement": "self-cleavage kobs at 640 uM GlcN6P", "setting": "glucosamine-6-phosphate [2]", "result": "< 1e-05", "unit": "s⁻¹"},
      {"measurement": "self-cleavage kobs at 2500 uM GlcN6P", "setting": "glucosamine-6-phosphate [3]", "result": "< 1e-05", "unit": "s⁻¹"}
    ]},
    {"variant": "AUAAAAGCGCCAGAACUACAGAAAUGUAGUUGACGAGGAGGAGGUUUAUCGACUUUUGGACGGAUGUCUCCAAA", "note": "[A53C C58G G60A C67U]", "values": [
      {"measurement": "self-cleavage kobs at 160 uM GlcN6P", "setting": "glucosamine-6-phosphate [1]", "result": "0.000139 ± 3.1e-05", "unit": "s⁻¹"},
      {"measurement": "self-cleavage kobs at 2500 uM GlcN6P", "setting": "glucosamine-6-phosphate [3]", "result": "8.04e-05 ± 2.5e-05", "unit": "s⁻¹"}
    ]},
    {"variant": "AUAAAAGCGCCAGAACUACAGAAAUGUAGUUCACGAGGAGGAGGUUUGUCUAAUUUUCGGCGGAUGCCUCCAAA", "note": "[G32C A48G G51U]", "values": [
      {"measurement": "self-cleavage kobs at 160 uM GlcN6P", "setting": "glucosamine-6-phosphate [1]", "result": "< 1e-05", "unit": "s⁻¹"},
      {"measurement": "self-cleavage kobs at 640 uM GlcN6P", "setting": "glucosamine-6-phosphate [2]", "result": "< 1e-05", "unit": "s⁻¹"},
      {"measurement": "self-cleavage kobs at 2500 uM GlcN6P", "setting": "glucosamine-6-phosphate [3]", "result": "< 1e-05", "unit": "s⁻¹"}
    ]},
    {"variant": "AUAAAAGCGGCAGAACUACAGAAAUGUAGUUCACGAGGAGGAGGUUUAUCGUAUUUUCGGCGGAUGCCUCCAAA", "note": "[C10G G32C A52U]", "values": [
      {"measurement": "self-cleavage kobs at 160 uM GlcN6P", "setting": "glucosamine-6-phosphate [1]", "result": "< 1e-05", "unit": "s⁻¹"},
      {"measurement": "self-cleavage kobs at 640 uM GlcN6P", "setting": "glucosamine-6-phosphate [2]", "result": "< 1e-05", "unit": "s⁻¹"},
      {"measurement": "self-cleavage kobs at 2500 uM GlcN6P", "setting": "glucosamine-6-phosphate [3]", "result": "< 1e-05", "unit": "s⁻¹"}
    ]},
    {"variant": "AUAAAAGCGCCAGGACUACAGAAAUGUAGUGGACGAGGAGCAGGUUUAUCGAAUUUUCGGCGGAUGCCUCCAAA", "note": "[A14G U31G G41C]", "values": [
      {"measurement": "self-cleavage kobs at 160 uM GlcN6P", "setting": "glucosamine-6-phosphate [1]", "result": "< 1e-05", "unit": "s⁻¹"},
      {"measurement": "self-cleavage kobs at 640 uM GlcN6P", "setting": "glucosamine-6-phosphate [2]", "result": "< 1e-05", "unit": "s⁻¹"},
      {"measurement": "self-cleavage kobs at 10000 uM GlcN6P", "setting": "glucosamine-6-phosphate [4]", "result": "6.26e-05 ± 2.5e-05", "unit": "s⁻¹"}
    ]},
    {"variant": "AUAAAAGCGCCAGAACUACAGAAAUGUAGUUGACGAUGAGGAGAUUUAUCGAAUUUUCGGCGGAUUCCUCCAAA", "note": "[G37U G44A G66U]", "values": [
      {"measurement": "self-cleavage kobs at 160 uM GlcN6P", "setting": "glucosamine-6-phosphate [1]", "result": "< 1e-05", "unit": "s⁻¹"}
    ]},
    {"variant": "AUAAAAGCGCCAGAACUACAGAAAUGUAGUUGACGAGGAGGAGGUUUAUCGAAUUUUCGGCGGAGGACUCGAAA", "note": "[U65G C67A C71G]", "values": [
      {"measurement": "self-cleavage kobs at 160 uM GlcN6P", "setting": "glucosamine-6-phosphate [1]", "result": "0.000166 ± 5.7e-05", "unit": "s⁻¹"},
      {"measurement": "self-cleavage kobs at 640 uM GlcN6P", "setting": "glucosamine-6-phosphate [2]", "result": "4.48e-05 ± 1.8e-05", "unit": "s⁻¹"},
      {"measurement": "self-cleavage kobs at 2500 uM GlcN6P", "setting": "glucosamine-6-phosphate [3]", "result": "7.1e-05 ± 1.3e-05", "unit": "s⁻¹"},
      {"measurement": "self-cleavage kobs at 10000 uM GlcN6P", "setting": "glucosamine-6-phosphate [4]", "result": "4.47e-05 ± 1.5e-05", "unit": "s⁻¹"}
    ]},
    {"variant": "AUAAAAGCUCCAGAACUACAGAAAUGUAGUUGACGAGGAAGAGGUUUAUCGUAUUUUCGGCGGAUGCCUCCAAA", "note": "[G9U G40A A52U]", "values": [
      {"measurement": "self-cleavage kobs at 160 uM GlcN6P", "setting": "glucosamine-6-phosphate [1]", "result": "< 1e-05", "unit": "s⁻¹"},
      {"measurement": "self-cleavage kobs at 2500 uM GlcN6P", "setting": "glucosamine-6-phosphate [3]", "result": "< 1e-05", "unit": "s⁻¹"}
    ]}
  ]
}
